According to patent US20150266975, “RNA-SPECIFIC BINDING ANTIBODY” (Korea Advanced Institute of Science and Technology, published 2015):

Biological target: T1, MabBC200-A3 (Homo sapiens)
T1 chain 1: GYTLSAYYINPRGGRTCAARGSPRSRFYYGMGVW
T1 chain 2: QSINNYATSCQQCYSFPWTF
Assay: filter; room temperature
Settings: hairpin with internal loops

B1: RNA (51-120) (ssRNA)
RNA: GGGAGGCGGGAGGAUAGCUUGAGCCCAGGAGUUCGAGACCUGCCUGGGCAAUAUAGCGAGACCCCGUUCUCCC
  Kd: ~10 nM
